From US20140242093A1, “METHODS AND COMPOSITIONS FOR MODULATING THE INNATE IMMUNE RESPONSE AND/OR MYOGENESIS IN A MAMMALIAN SUBJECT” (FRED HUTCHINSON CANCER RESEARCH CENTER, priority 2011, published 2014)

System: control human primary myoblasts
Experiment: Expression microarray of primary myoblasts transduced with lentivirus carrying DUX4-fl, DUX4-s or GFP
Protocol: Primary human myoblasts were collected and cultured as previously described (Snider et al., 2010). Primary myoblasts were maintained at or below 70% confluency for proliferation. For differentiation, cells were allowed to reach 95-100% confluency in growth medium. Once confluency was reached, the cells were changed to differentiation medium (F10 media supplemented with 1% horse serum, 10 μg/mL insulin, and 10 μg/mL transferrin, penicillin/streptomycin) and maintained for 4 days. Human RD cells were grown in DMEM in 10% bovine calf serum (Hyclone) and penicillin/streptomycin. The primary myoblasts were transduced with lentivirus carrying DUX-fl, DUX4- or GFP (MOI=15).
Expression microarrays were performed on the transduced cells at 24 hours after transduction as follows. […] Samples were analyzed by Illumina Human Whole Genome microarrays. Probe intensities were corrected, normalized, and summarized by the Lumi package of Bioconductor (Du et al., 2008). Differentially expressed genes were identified by the LIMMA package of Bioconductor (Wettenhall and Smyth, 2004). Gene set enrichment analysis (GSEA) was performed using the Bioconductor GOstats package (Falcon and Gentleman, 2007).

B1: DUX4-s: short splice form of DUX4 (SEQ ID NO:112), keeps the double-homeobox domains, lacks the C-terminal activation domain (protein, listed as Homo sapiens)
chain: MALPTPSDSTLPAEARGRGRRRRLVWTPSQSEALRACFERNPYPGIATRERLAQAIGIPEPRVQIWFQNERSRQLRQHRRESRPWPGRRGPPEGRRKRTAVTGSQTALLLRAFEKDRFPGIAAREELARETGLPESRIQIWFQNRRARHPGQGGRAPAQV
Refseq NM_007283.5
  fc of MGLL (expression array): −0.003305
Refseq NM_007315.2, cultured human skeletal muscle
  STAT1 expression fc: 0.8235
Refseq NM_009587.2
  fc of LGALS9 (expression array): 1.706
Refseq NM_012083.2
  FRAT2 expression fc: −0.05118
Refseq NM_012121.4
  fc of CDC42EP4 (expression array): 0.06633
Refseq NM_012124.1
  CHORDC1 expression fc: 0.1261
Refseq NM_012130.2
  CLDN14 expression fc: −0.3006
Refseq NM_012143.2
  TFIP11 expression fc: 0.1124
Refseq NM_012238.3
  SIRT1 expression fc: 0.2071
Refseq NM_012285.1
  KCNH4 expression fc: −0.07365
Refseq NM_012342.2
  BAMBI expression fc: 0.1101
Refseq NM_012461.1
  fc of TINF2 (expression array): 0.3861
Refseq NM_013230.2
  CD24 expression fc: −0.3586
Refseq NM_013249.1
  ZNF214 expression fc: 0.166
Refseq NM_013254.2
  TBK1 fc: 0.3572
Refseq NM_013262.3
  MYLIP expression fc: −0.2969
Refseq NM_013293.3
  TRA2A expression fc: −0.1095
Refseq NM_013302.3
  fc of EEF2K (expression array): −0.5322
Refseq NM_013376.3
  SERTAD1 expression fc: 0.41
Refseq NM_013386.3
  fc of SLC25A24 (expression array): 1.103
Refseq NM_013943.1
  fc of CLIC4 (expression array): 1.228
Refseq NM_014038.1
  BZW2 expression fc: −0.4003
Refseq NM_014045.3
  LRP10 fc: 0.4158
Refseq NM_014138.3
  fc of FAM156A (expression array): −0.1365
Refseq NM_014140.2
  SMARCAL1 fc: 0.01669
Refseq NM_014167.2
  CCDC59 expression fc: 0.2509
Refseq NM_014290.1
  fc of TDRD7 (expression array): 1.072
Refseq NM_014314.3, cultured human skeletal muscle
  DDX58 expression fc: 0.02114
Refseq NM_014317.3
  PDSS1 expression fc: −0.07459
Refseq NM_014324.4
  AMACR expression fc: 0.08431
Refseq NM_014330.2
  PPP1R15A expression fc: 0.5668
Refseq NM_014399.3
  TSPAN13 expression fc: −0.1469
Refseq NM_014508.2
  APOBEC3C fc: 0.5827
Refseq NM_014556.2, cultured human skeletal muscle
  EVC expression fc: −0.3857
Refseq NM_014575.2, cultured human skeletal muscle
  SCHIP1 expression fc: 0.06263
Refseq NM_014585.3
  SLC40A1 expression fc: −0.4239
Refseq NM_014603.1
  CDR2L fc: −0.203
Refseq NM_014604.2
  TAX1BP3 fc: −0.341
Refseq NM_014633.3
  CTR9 expression fc: −0.0216
Refseq NM_014655.1
  SLC25A44 expression fc: −0.07654
Refseq NM_014751.4
  MTSS1 fc: −0.4145
Refseq NM_014831.1
  LBA1 fc: 0.4958
Refseq NM_014878.4
  KIAA0020 expression fc: 0.01783
Refseq NM_014945.2
  ABLIM3 fc: 0.01495
Refseq NM_014969.4
  WDR47 expression fc: 0.1401
Refseq NM_015193.3
  ARC expression fc: −0.188
Refseq NM_015213.2
  fc of DENND5A (expression array): 0.07991
Refseq NM_015322.3
  fc of FEM1B (expression array): 1.026
Refseq NM_015368.3
  fc of PANX1 (expression array): 1.233
Refseq NM_015423.2
  fc of AASDHPPT (expression array): −1.246
Refseq NM_015440.3
  MTHFD1L fc: 0.3955
Refseq NM_015463.1
  C2orf32 fc: 0.07813
Refseq NM_015480.1
  PVRL3 expression fc: 0.4473
Refseq NM_015514.1
  NGDN expression fc: 0.4088
Refseq NM_015713.3
  fc of RRM2B (expression array): 0.6161
Refseq NM_015832.3
  MBD2 expression fc: −0.07679
Refseq NM_015884.1
  fc of MBTPS2 (expression array): 1.035
Refseq NM_015908.4
  ARS2 expression fc: −0.2002
Refseq NM_015917.1
  GSTK1 fc: 0.0593
Refseq NM_015934.3
  NOP58 expression fc: 0.2243
Refseq NM_015986.2
  CRLF3 expression fc: −0.1449
Refseq NM_016030.5
  fc of TTC15 (expression array): −0.1193
Refseq NM_016048.1
  ISOC1 expression fc: −0.6187
Refseq NM_016060.2
  MED31 expression fc: 0.3123
Refseq NM_016113.3
  fc of TRPV2 (expression array): 0.3116
Refseq NM_016174.3
  CERCAM fc: −0.1838
Refseq NM_016216.2
  DBR1 expression fc: 0.2247
Refseq NM_016310.2
  POLR3K expression fc: 0.05873
Refseq NM_016323.2, cultured human skeletal muscle
  HERC5 expression fc: 1.329
Refseq NM_016343.3
  fc of CENPF (expression array): −1.028
Refseq NM_016403.3
  CWC15 expression fc: 0.09338
Refseq NM_016456.2
  fc of TMEM9 (expression array): −0.2052
Refseq NM_016577.3
  RAB6B expression fc: 0.007069
Refseq NM_016582.1, cultured human skeletal muscle
  SLC15A3 expression fc: 0.7755
Refseq NM_016594.1
  FKBP11 fc: 0.3006
Refseq NM_016608.1
  ARMCX1 fc: −0.06031
Refseq NM_016647.2
  C8orf55 fc: −0.387
Refseq NM_017410.2
  HOXC13 fc: 0.444
Refseq NM_017414.3, cultured human skeletal muscle
  USP18 expression fc: 0.996
Refseq NM_017554.1, cultured human skeletal muscle
  PARP14 expression fc: 0.5211
Refseq NM_017611.2
  fc of SLC43A3 (expression array): 0.4376
Refseq NM_017617.3
  NOTCH1 fc: −0.6695
Refseq NM_017641.2
  KIF21A expression fc: 0.01529
Refseq NM_017651.3
  fc of AHI1 (expression array): −1.054
Refseq NM_017654.2, cultured human skeletal muscle
  SAMD9 expression fc: 1.399
Refseq NM_017709.3
  FAM46C expression fc: −0.1289
Refseq NM_017750.2, cultured human skeletal muscle
  RETSAT expression fc: −0.1731
Refseq NM_017816.1
  LYAR expression fc: 0.000875
Refseq NM_017894.4
  ZSCAN2 expression fc: −0.1999
Refseq NM_017912.3, cultured human skeletal muscle
  HERC6 expression fc: 0.5237
Refseq NM_017933.3
  PID1 fc: 0.314
Refseq NM_017953.2
  ZNHIT6 expression fc: 0.3265
Refseq NM_017970.2
  C14orf102 expression fc: 0.1769
Refseq NM_017983.4
  fc of WIPI1 (expression array): 0.07989
Refseq NM_017999.4
  RNF31 fc: 0.05142
Refseq NM_018027.3
  FRMD4A fc: −0.5453
Refseq NM_018088.3
  FAM90A1 expression fc: 0.02937
Refseq NM_018107.4
  fc of RBM23 (expression array): −0.07729
Refseq NM_018129.2
  PNPO fc: −0.02588
Refseq NM_018144.2
  SEC61A2 expression fc: 0.209
Refseq NM_018161.4
  NADSYN1 fc: 0.1182
Refseq NM_018295.2, cultured human skeletal muscle
  TMEM140 expression fc: 1.003
Refseq NM_018321.3
  BRIX1 expression fc: 0.2991
Refseq NM_018370.2
  DRAM1 fc: −0.3649
Refseq NM_018385.1
  LSG1 expression fc: −0.06468
Refseq NM_018421.2
  TBC1D2 fc: 0.2926
Refseq NM_018427.3
  RRN3 expression fc: 0.1072
Refseq NM_018443.2
  ZNF302 fc: −0.01005
Refseq NM_018446.2
  fc of GLT8D1 (expression array): −0.2715
Refseq NM_018476.3
  BEX1 fc: −0.2346
Refseq NM_018656.2
  SLC35E3 fc: 0.4619
Refseq NM_018661.3
  DEFB103B expression fc: −0.03507
Refseq NM_018837.2
  fc of SULF2 (expression array): −0.04817
Refseq NM_018945.3
  PDE7B fc: −0.5695
Refseq NM_018946.2
  NANS expression fc: −0.006607
Refseq NM_019014.3
  POLR1B expression fc: −0.1313
Refseq NM_019084.2
  CCNJ expression fc: 0.07916
Refseq NM_019102.2
  fc of HOXA5 (expression array): −0.1759
Refseq NM_020143.2
  PNO1 expression fc: 0.2485
Refseq NM_020231.3
  KTELC1 fc: 0.1564
Refseq NM_020317.3
  C1orf63 expression fc: −0.139
Refseq NM_020338.2
  ZMIZ1 fc: −0.03787
Refseq NM_020358.2
  TRIM49 expression fc: −0.01703
Refseq NM_020424.2
  LYRM1 fc: 0.01491
Refseq NM_020428.2
  SLC44A2 fc: −0.3457
Refseq NM_020528.1
  PCBP3 fc: 0.2113
Refseq NM_020529.1, cultured human skeletal muscle
  NFKBIA expression fc: 0.2751
Refseq NM_020650.2
  fc of RCN3 (expression array): −0.2021
Refseq NM_020651.2
  PELI1 expression fc: 0.1483
Refseq NM_020728.1
  fc of FAM62B (expression array): −1.387
Refseq NM_020760.1
  HECW2 fc: 0.06016
Refseq NM_020807.1
  ZNF319 fc: −0.08179
Refseq NM_020841.4
  OSBPL8 expression fc: 1.055
Refseq NM_020903.2
  USP29 expression fc: −0.09046
Refseq NM_020914.3
  fc of RNF213 (expression array): 0.6308
Refseq NM_020940.3
  fc of FAM160B1 (expression array): 0.6282
Refseq NM_020962.1
  fc of IGDCC4 (expression array): −0.5216
Refseq NM_021026.2
  RFPL1 expression fc: 0.3402
